According to the RNAGym collection of RNA variant scans (doi:10.1093/nar/gkz1192):

B1: CPEB3 Ribozyme (parent)
chain: UAACAGGGGGCCACAGCAGAAGCGUUCACGUCGCAGCCCCUGUCAGAUUCUGGUGAAUCUGCGAAUUCUGCUGUAUAUCUC

Variants of: B1
Assay: self-cleavage, relative activity (ratio to wild type); higher = more cleavage; in vitro, sequencing
In short: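 CPEB3 self-cleaving ribozyme mutant libraries were made by rounds of error-prone PCR, barcoded, and transcribed in vitro with T7 RNA polymerase for 5 hours at 37°C. Cleavage occurred during transcription and a 15 min DNase I step before EDTA stop. RNAs were reverse transcribed with template switching and Illumina-sequenced, with DNA sequencing mapping barcodes to variants. Relative activity is the variant's cleaved/total read fraction divided by wild type's (minimum 5 reads), averaged across three batches.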
Variant A3U G22A has a self-cleavage of 0.45.
Variant A3U G22U has a self-cleavage of 0.32.
Work on A3G G36U yielded a self-cleavage of 0.26.
Variant A3G G36A has a self-cleavage of 0.2.
Variant A3U C81G has a self-cleavage of 1.21.
Variant A3U G42U has a self-cleavage of 0.16.
For C4U G10U, the self-cleavage was 0.25.
C4U G10A showed a self-cleavage of 0.63.
Work on A3G U31G yielded a self-cleavage of 0.76.
For A3G U31C, the self-cleavage was 0.84.
Variant A3G U31A has a self-cleavage of 0.61.
C4A U66C showed a self-cleavage of 0.24.
Variant C4U A13C has a self-cleavage of 1.21.
With C4A A20G the self-cleavage was 1.11.
C4A G6A showed a self-cleavage of 0.43.
C4A G8A showed a self-cleavage of 0.47.
C4U A65G gave a self-cleavage of 0.43.
Variant C4A G22C has a self-cleavage of 0.25.
In the case of A3U G33U, the self-cleavage is reported as 0.42.
In the case of A3U G33A, the self-cleavage is reported as 0.16.
C4U C50A gave a self-cleavage of 1.17.
For C4U A18U, the self-cleavage was 0.73.
With A3G U43A the self-cleavage was 0.99.
Work on A3G U43C yielded a self-cleavage of 0.49.
C4U C40U gave a self-cleavage of 0.86.
A3U U51G gave a self-cleavage of 1.08.
Variant A3U U51A has a self-cleavage of 1.02.
In the case of A3U U51C, the self-cleavage is reported as 1.15.
With A3G U69G the self-cleavage was 0.76.
Variant A3G U69C has a self-cleavage of 0.6.
A3G U69A gave a self-cleavage of 0.69.
C4U G55U showed a self-cleavage of 1.28.
C4A U51C showed a self-cleavage of 1.14.
Work on A3U A20C yielded a self-cleavage of 0.21.
A3U A20U gave a self-cleavage of 0.45.
With A3U A20G the self-cleavage was 0.94.
For A3G U51G, the self-cleavage was 0.98.
Variant A3G U51C has a self-cleavage of 0.94.
For A3G U51A, the self-cleavage was 1.
A3G U74C gave a self-cleavage of 1.16.
A3G U74A gave a self-cleavage of 1.22.
Variant A3G U74G has a self-cleavage of 1.24.
Variant A3U G46A has a self-cleavage of 0.54.
With C4U U54C the self-cleavage was 1.15.
C4U U54A showed a self-cleavage of 1.18.
C4U A20U showed a self-cleavage of 0.42.
C4U A20C gave a self-cleavage of 0.21.
For C4U A20G, the self-cleavage was 0.81.
Variant C4G U49A has a self-cleavage of 0.65.
Work on A3U A64G yielded a self-cleavage of 1.06.
Work on A3U A64U yielded a self-cleavage of 0.69.
Work on A3U G70U yielded a self-cleavage of 0.19.
Variant A3U G70A has a self-cleavage of 0.63.
A3U U31C gave a self-cleavage of 1.01.
For A3U U31A, the self-cleavage was 0.55.
Variant A3U U31G has a self-cleavage of 1.01.
Work on C4A U76A yielded a self-cleavage of 1.2.
With A3G U66C the self-cleavage was 0.4.
Work on A3G U66A yielded a self-cleavage of 0.64.
Work on A3G U66G yielded a self-cleavage of 0.62.
C4A C62U showed a self-cleavage of 0.23.
A3U C40A gave a self-cleavage of 0.54.
For A3U A35G, the self-cleavage was 1.28.
In the case of A3U A35U, the self-cleavage is reported as 0.77.
For A3G G24A, the self-cleavage was 0.6.
For A3G G19U, the self-cleavage was 0.41.
For A3G U76A, the self-cleavage was 1.23.
A3G U76C gave a self-cleavage of 1.15.
With A3G G46C the self-cleavage was 0.39.
Work on A3G G46A yielded a self-cleavage of 0.13.
With C4A G30A the self-cleavage was 0.39.
A3U C59A gave a self-cleavage of 0.51.
Variant A3U C59U has a self-cleavage of 0.66.
In the case of A3U A45U, the self-cleavage is reported as 0.73.
Variant A3U A45G has a self-cleavage of 1.03.
For C4G U66A, the self-cleavage was 0.79.
For C4U G52A, the self-cleavage was 1.26.
Variant C4U U25A has a self-cleavage of 0.31.
C4U U25C showed a self-cleavage of 0.2.
In the case of C4U U25G, the self-cleavage is reported as 0.45.
A3G G9A showed a self-cleavage of 0.53.
A3G G9U showed a self-cleavage of 0.34.
A3G G9C gave a self-cleavage of 0.6.
Work on A3G G63A yielded a self-cleavage of 0.75.
